Results from US20240368258A1 (RUTGERS THE STATE UNIVERSITY OF NEW JERSEY, published 2024).
Values belong to the binder of their own block, whether it stands above or below them.

What was measured:
[1] = target: T1, GRP78 on the surface of MCF-7 human breast cancer cells (human, UniProt P11021 19-654); experiment: whole cell phage-ELISA, monovalent phage on MCF-7 cells
T1 construct: whole, on cells; also called surface GRP78; 78 kDa glucose-regulated protein
Procedure: FIG. 8. Phage binding on cells. […] Single scFv clones were produced as monovalent phage and tested for binding on MCF-7 in vitro. Briefly, cells were seeded on 96-well plate, blocked and incubated with phage displaying the scFv of interest at different concentrations. After washing, cell surface bound phage were detected with the antiM13-HRP conjugated mAb (GE).
Single scFv clones were produced as monovalent phage and tested for binding on MCF-7 in vitro. Briefly, cells were seeded on 96-well plate, blocked and incubated with phage displaying the scFv of interest at different concentrations. After washing, cell surface bound phage were detected with the antiM13-HRP conjugated mAb (GE). […] Anti-GRP78 phage bind specifically to cells expressing surface GRP78.

[2] = target: T2, EphA5 expressed on H460 human lung carcinoma cells (human, UniProt P54756 25-1037); experiment: whole cell phage-ELISA, monovalent phage on H460 cells
T2 construct: whole, on cells; H226 cells served as the EphA5-negative cell line; also called native EphA5 target; endogenous EphA5 expressed on the cell surface
Procedure: Single scFv clones were produced as monovalent phage and tested for binding on H460 human lung carcinoma (EphA5 positive) and H226 human lung squamous cell carcinoma (EphA5 negative) cell lines in vitro. Briefly, cells were seeded on 96-well plate, blocked and incubated with phage displaying the scFv of interest at different concentrations. After washing, cell surface bound phage were detected with the antiM13-HRP conjugated mAb (GE).

T1 sequence (P11021 19-654): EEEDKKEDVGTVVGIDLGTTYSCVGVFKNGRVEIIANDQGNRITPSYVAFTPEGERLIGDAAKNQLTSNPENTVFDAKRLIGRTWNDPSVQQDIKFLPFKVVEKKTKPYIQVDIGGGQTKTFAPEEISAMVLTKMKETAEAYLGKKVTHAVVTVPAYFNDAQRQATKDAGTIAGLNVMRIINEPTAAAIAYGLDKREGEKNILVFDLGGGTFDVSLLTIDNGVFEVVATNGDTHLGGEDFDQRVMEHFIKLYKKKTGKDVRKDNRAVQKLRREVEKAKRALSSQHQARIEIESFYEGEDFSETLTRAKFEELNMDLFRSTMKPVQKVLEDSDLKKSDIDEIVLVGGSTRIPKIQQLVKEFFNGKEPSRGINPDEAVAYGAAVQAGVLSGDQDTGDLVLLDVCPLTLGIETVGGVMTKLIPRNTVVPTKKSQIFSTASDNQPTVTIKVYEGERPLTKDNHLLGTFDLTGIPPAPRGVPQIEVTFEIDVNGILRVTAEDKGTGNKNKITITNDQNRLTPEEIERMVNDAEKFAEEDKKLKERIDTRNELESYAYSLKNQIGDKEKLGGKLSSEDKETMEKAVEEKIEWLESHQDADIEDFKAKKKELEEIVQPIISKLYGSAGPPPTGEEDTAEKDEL
T2 sequence (P54756 25-1037): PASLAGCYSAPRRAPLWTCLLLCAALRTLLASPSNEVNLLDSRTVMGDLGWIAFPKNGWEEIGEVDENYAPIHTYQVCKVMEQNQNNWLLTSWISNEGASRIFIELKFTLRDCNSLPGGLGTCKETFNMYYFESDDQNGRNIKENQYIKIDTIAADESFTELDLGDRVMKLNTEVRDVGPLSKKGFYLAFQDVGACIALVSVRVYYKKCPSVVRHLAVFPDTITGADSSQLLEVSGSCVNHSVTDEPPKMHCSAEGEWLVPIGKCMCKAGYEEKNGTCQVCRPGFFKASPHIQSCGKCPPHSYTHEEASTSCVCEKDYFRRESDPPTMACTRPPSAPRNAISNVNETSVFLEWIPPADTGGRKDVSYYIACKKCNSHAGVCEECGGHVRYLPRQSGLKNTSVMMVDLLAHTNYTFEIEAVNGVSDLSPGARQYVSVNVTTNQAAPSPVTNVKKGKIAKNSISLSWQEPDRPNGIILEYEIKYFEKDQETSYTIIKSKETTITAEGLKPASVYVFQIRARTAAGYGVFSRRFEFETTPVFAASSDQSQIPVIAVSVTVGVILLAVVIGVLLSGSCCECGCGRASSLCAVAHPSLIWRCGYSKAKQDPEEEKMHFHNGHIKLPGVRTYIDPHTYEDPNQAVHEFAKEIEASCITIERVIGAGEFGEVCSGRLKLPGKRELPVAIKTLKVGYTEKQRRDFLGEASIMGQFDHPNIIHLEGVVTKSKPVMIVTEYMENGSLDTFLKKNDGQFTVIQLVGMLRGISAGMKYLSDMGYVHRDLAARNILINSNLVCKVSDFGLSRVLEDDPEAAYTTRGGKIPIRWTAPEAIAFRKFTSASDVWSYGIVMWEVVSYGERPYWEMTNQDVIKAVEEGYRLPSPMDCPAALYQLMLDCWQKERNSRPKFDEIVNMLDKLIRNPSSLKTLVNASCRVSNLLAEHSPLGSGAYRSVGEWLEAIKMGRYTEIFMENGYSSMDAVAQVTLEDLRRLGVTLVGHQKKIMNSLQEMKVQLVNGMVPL

B2: antiEphA5_T22 scFv (scFv)
scFv: QPVLTQSSSLSASPGASVSLTCTLRSGINVGPYRMYWYQQKPGSPPQYLLSYKSDSDTQQASGVPSRFSGSKDASANAGILLISGLQSEDEADYYCMIWHNNAVVFGGGTKLTVLSGGSTITSYNVYYTKLSSSGTQVQLVQSGTEVKKPGASVKVSCKVSGYSLSELSMHWVRQAPGKGLEWMGSFDPEDGETTYAQRFQGRVTMTEDTSTDTAYMELRSLTSDDTAVYYCAREIWSGYAYFDLWGRGTLVTVSS
binding result [2]: binds

B4: antiEphA5_F31 scFv (scFv)
scFv: SYELTQPPSVSVAPGKTARITCEGNNIGSKGVHWYQQKPGQAPALVVYDGSDRPSGIPERFSGSNSGNTATLTISRVEAGDEADYYCQVWDNSSDHPNYVFGTRTKLTVLSGGSTKTSYNVYYTKLSSSGTQVQLVETGGGLVQPGGSLRLSCAASGFTFSSYAMSWVRQAPGKGLEWVSAISGSGGSTYYADSVKGRFTISRDNSKNTLYLQMNSLRAEDTAVYYCARVAAGDYWGQGTLVTVSS
binding result [2]: binds

The remaining lines, values ahead:

binding result [1]: binds
B1: antiGRP78_F6 scFv (scFv)
scFv: SYELTQPHSVSVAPGQTARITCGGDNIGSKSVHWYQQRPGQAPVLVVYDDSDRPSGIPERFSGSNSENTATLTISGVEAGDEADYYCQVWDSTSHHVVFGGGTKLTVLSGGSTITSYNVYYTKLSSSGTQVQLQQSGPGLVKPPQTLSLTCAISGDSVSSNSAAWNWIRQSPSRGLEWLGRTYYRSKWYNDYAVSVKSRITINPDTSKNQFSLQLNSVTPEDTAVYYCARDPYYYDSSGYYYFDAFDIWGQGTMVTVSS

binding result [1]: binds
B3: antiGRP78_B4 scFv (scFv)
scFv: SYVLTQPPSVSVAPGKTATITCGGDDIGSKSVHWYQQKPGQAPVLVVYDDGDRPSGIPERFSGSNSGNTATLAISRVEAGDEADYYCQVWDSSSDQYVFGSGTKLTVLSGGSTITSYNVYYTKLSSSGTQVRLQESGPGLVKPSQTLSLTCTVSGGSISSGGYYWSWIRQHPGKGLEWIGYIYYSGSTYYNPSLESRVTISVDTSKNQFSLKLSSVTAADTAVYYCARYSSIDAFEIWGQGTMVTVSS
